Reference: publication PMC8073111
Each block holds one molecule with its values, some of them ahead of it.

How the values were obtained:
C-myc-CCR4-RLuc8 (human) = molecular target: T1, C-myc-CCR4-RLuc8 (human) (UniProt P51679)
T1 sequence: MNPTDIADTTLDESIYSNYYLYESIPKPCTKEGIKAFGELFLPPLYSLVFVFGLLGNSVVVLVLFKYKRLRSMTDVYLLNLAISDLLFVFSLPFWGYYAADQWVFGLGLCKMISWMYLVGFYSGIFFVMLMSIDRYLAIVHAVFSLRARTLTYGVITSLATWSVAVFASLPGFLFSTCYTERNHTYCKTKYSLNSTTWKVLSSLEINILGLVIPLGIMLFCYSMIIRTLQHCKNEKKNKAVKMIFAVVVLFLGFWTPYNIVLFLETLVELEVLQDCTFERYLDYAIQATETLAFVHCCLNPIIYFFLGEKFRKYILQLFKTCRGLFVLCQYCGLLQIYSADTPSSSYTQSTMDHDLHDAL

C-myc-CCR7-RLuc8 (human) [1] = molecular target: C-myc-CCR7-RLuc8 (human) (UniProt P32248); conditions: scale: pEC50
C-myc-CCR7-RLuc8 (human) [2] = molecular target: C-myc-CCR7-RLuc8 (human) (UniProt P32248)
[3] = molecular target: T2, C-myc-CCR10-RLuc8 (human) (UniProt P46092)
T2 sequence: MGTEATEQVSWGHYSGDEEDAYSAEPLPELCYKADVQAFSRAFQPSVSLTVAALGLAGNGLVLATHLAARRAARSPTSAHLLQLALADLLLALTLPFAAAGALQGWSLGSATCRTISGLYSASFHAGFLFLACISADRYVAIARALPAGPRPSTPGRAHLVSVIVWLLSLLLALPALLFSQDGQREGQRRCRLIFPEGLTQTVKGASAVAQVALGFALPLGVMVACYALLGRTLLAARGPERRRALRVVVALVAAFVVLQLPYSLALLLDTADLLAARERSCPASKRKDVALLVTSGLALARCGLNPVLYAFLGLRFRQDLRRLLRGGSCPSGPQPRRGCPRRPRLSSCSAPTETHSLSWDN

Chain of UniProt P32248 (P32248 25-378): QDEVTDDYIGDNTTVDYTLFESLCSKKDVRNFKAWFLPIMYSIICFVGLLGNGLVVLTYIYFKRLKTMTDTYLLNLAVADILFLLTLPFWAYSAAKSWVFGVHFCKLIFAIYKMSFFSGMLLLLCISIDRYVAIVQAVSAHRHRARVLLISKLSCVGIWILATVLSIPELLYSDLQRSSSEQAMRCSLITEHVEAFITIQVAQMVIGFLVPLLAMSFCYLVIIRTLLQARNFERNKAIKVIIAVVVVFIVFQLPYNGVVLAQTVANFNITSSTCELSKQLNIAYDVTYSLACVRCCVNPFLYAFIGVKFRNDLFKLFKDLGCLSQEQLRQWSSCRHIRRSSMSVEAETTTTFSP

β-arrestin2 recruitment to CCR4 (BRET): Emax relative to CCL22 (C-myc-CCR4-RLuc8 (human)): 28%
Molecule: CC chemokine ligand 17 (CCL17) (from UniProt Q92583 24-94)

β-arrestin2 recruitment to CCR7 (BRET): pEC50 as printed in the text, assuming the same Emax value (differs from Table 1) (C-myc-CCR7-RLuc8 (human) [1]): 6.7 | G protein activation via CCR7: Emax relative to CCL19 (C-myc-CCR7-RLuc8 (human) [2]): 103% | cAMP inhibition via CCR7: Emax relative to CCL19 (C-myc-CCR7-RLuc8 (human) [2]): 99%
Molecule: CCL21 (from UniProt O00585 24-134) (ligand)

G protein activation via CCR10: maximum signal observed relative to the Emax of CCL27; curve not saturated [3]: 80% | NFAT Ca2+ reporter via CCR10: Emax relative to CCL27 [3]: 106% | cAMP inhibition via CCR10: maximum signal observed relative to the Emax of CCL27; curve not saturated [3]: 64% | β-arrestin2 recruitment to CCR10 (BRET): maximum signal observed relative to the Emax of CCL27; curve not saturated, potency ND [3]: 82%
B1: CCL28(4-108) (ligand)
chain: ILPIASSCCTEVSHHISRRLLERVNMCRIQRADGDCDLAAVILHVKRRRICVSPHNHTVKQWMKVQAAKKNGKGNVCHRKKHHGKRNSNRAHQGKHETYGHKTPY
